Test results from paper PMC3551926, “Dact2 Represses PITX2 Transcriptional Activation and Cell Proliferation through Wnt/beta-Catenin Signaling during Odontogenesis” (PLoS ONE, 2013).

Target: GST-PITX2A-FL (full length) (UniProt Q99697-3 1-271)
Assay: cell-based or functional assay

B1: Dact2, purified bacterially expressed protein (natural protein, mouse, UniProt Q7TN08 1-757, looked up)
chain: MWAPSGQGPAGWDRRRVGARLRAALAGLQELQGLRATQQARVRGALGLHPAPGPRGQELRLEAALTALREQLSRLRRQDAGLKTHLDQLDQQISELQLDVSRSSCEALDSDSRPSSGFYELSDAGSCSLSTSCASVCSDRLSPSLGSWLPVFQPSKSRSGIGDWRPRSADETTVPAWSPQLTEDSRLLHGAEGTGRLTGMFRPRPVSTGDLERVLPADVGLQRAGTDAAHLLGQGIEIPAHALDPTYQRDLVARGGQEVYPYPSPLHAVALQSPLFALPKEAPCFDICSPPQEPPLVPVDENRTQPEPIRELGSAEAYIHRLLHLRGQELPLRDVGQEQGGDTAAFPPKPCGQRSESTCQLEKQACGADRGGLKLGRGAAKDSLKQHGPVSLVGAEPLSSPLKEETIPWNPCVHGDNTVGSSPCSQAQQPLNDCGQGPVLSPSRVLGTESPPLAPEPFAYTSCTTGETSPVKLRMGFSQNKAVKVRRRVSEKVPRLGKQLPPQPERQRVTERDPSRPHQGGLSRRPTLAREPPGRSCSESTLYPVPFLVPVVVAQRESYPTSPQAFFPMEAALLSSAARRKQRRWQSTMEISAKAGSVSQPGPSMGLPRSPAKRGSGPRAQSRPTLARQDACARCESDPSEHSADCTSLYHSTIAETSEDEEASDHTANRFGDESSSNDSEGCFRGSRRRLAIGSAEAGQGGWAWPRVPPQQPSRAPGNTRPPLPPVPKLCRIKASKALKKKIRRFQPAALKVMTMV
luciferase reporter driven by the Amelx 2.2 kb promoter in cells co-transfected with PITX2A and Dact2: fold activation by PITX2A with Dact2 (∼22-fold without Dact2): 14 fold activation
